Where two headings read alike, the source gives them in different places.
How the values were obtained:
[1] = target: T1, human TNFR2 on cells (human, UniProt P20333 23-461); assay: flow cytometry on human PBMC, antibody at 10 ug/mL, anti-human Fc-PE secondary
T1 construct: whole, on cells; also called TNFR2 on Jurkat clone H6; human TNFR2 on CD4+ and CD8+ T cells
T1 sequence (looked up): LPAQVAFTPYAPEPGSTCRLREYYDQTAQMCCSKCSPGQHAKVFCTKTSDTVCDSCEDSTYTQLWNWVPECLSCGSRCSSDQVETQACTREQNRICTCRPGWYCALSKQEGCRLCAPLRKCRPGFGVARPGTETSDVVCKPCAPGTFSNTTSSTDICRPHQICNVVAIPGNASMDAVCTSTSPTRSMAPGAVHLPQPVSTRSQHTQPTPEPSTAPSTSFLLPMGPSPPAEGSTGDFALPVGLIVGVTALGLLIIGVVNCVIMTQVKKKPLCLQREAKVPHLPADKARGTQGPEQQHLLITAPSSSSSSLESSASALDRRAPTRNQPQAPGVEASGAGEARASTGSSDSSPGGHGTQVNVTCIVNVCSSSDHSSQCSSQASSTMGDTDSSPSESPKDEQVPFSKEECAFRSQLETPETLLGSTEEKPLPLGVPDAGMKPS
Method: The following day 0.3×10⁶ PBMC were counted and washed with PBS (Lonza). PBMCs were resuspended in Fixable Viability Stain 575V (BD) diluted 1:1,000 in PBS and incubated for 10 minutes. PBMCs were then washed twice in PBS to remove residual viability stain. PBMCs were then resuspended in Horizon Brilliant Stain Buffer (BD) with 10 uL per test of human Fc receptor binding inhibitor (eBioscience) and incubated on ice for 20 minutes to block Fc receptors. […] PBMCs were incubated 20 minutes on ice and then washed three times with 2% FBS PBS. To visualize TNFR chimeric antibody binding, PBMCs were resuspended in goat anti-human Fc-PE F(ab′)₂ secondary reagent (Jackson ImmunoResearch) diluted 1:200 in 2% FBS PBS and incubated on ice for 20 minutes. Cells were then washed three times in 2% FBS PBS and resuspended in 200 uL 2% FBS PBS for flow cytometry analysis using a BD FACS Celesta instrument and FACS Diva software. T cells were analyzed for chimeric TNFR2 binding by gating on viable cells defined as lymphocytes using forward and side scatter and as T cells by anti-CD3 staining. CD4⁺ and CD8⁺ subsets were identified by commercially available specific antibody conjugates.

[2] = target: T2, soluble human TNFR2 (human, UniProt P20333 23-257); assay: competition ELISA, plate-bound soluble human TNFR2, biotinylated TNFα as competitor
T2 construct: also called soluble TNFR2
T2 sequence (looked up): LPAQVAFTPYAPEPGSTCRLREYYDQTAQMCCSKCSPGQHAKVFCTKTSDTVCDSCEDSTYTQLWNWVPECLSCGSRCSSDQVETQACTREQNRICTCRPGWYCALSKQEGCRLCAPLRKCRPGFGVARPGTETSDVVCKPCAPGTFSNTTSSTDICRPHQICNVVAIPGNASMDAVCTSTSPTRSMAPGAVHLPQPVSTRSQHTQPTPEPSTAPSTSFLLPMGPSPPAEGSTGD
Method: (§1) Soluble human TNFR2 (Sino Biological, 10417-H08H) or cynomolgus TNFR2 (Sino Biological, 90102-C08H) was coated on Nunc-Immuno™ plates at 0.1 μg/ml, 0.5 ug/ml, 1 μg/ml, and 5 μg/ml. […] Plates were developed using TMB and stopped with 3 M HCl.
(§2) IC₅₀ values are reported in nM.

[3] = target: T3, soluble cynomolgus TNFR2 (cynomolgus, UniProt A0A2K5VET2 132-366); assay: competition ELISA, plate-bound soluble cynomolgus TNFR2, biotinylated TNFα as competitor
T3 sequence: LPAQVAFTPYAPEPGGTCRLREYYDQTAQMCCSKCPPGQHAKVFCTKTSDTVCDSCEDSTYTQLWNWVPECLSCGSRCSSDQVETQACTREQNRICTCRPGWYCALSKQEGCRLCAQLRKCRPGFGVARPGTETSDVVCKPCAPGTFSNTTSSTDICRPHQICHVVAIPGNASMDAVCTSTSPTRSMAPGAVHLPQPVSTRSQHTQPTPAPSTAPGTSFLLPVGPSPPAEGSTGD
Method: as §1, §2

[4] = target: T2, soluble human TNFR2; assay: competition ELISA: plate-bound soluble human TNFR2, competitor biotinylated TNFα, streptavidin-HRP, A450
Method: as §1

[5] = target: T2, soluble human TNFR2; assay: as above; remark: listed apart in the source
Method: as §1

[6] = target: T3, soluble cynomolgus TNFR2; assay: competition ELISA: plate-bound soluble cynomolgus TNFR2, competitor biotinylated TNFα, streptavidin-HRP, A450
Method: as §1

[7] = target: T2, soluble human TNFR2; assay: competition ELISA: plate-bound soluble human TNFR2, competitor biotinylated TNFα; IC50 relative to unlabelled TNFα = 1.00
Method: as §1, §2

[8] = target: T3, soluble cynomolgus TNFR2; assay: competition ELISA: plate-bound soluble cynomolgus TNFR2, competitor biotinylated TNFα; IC50 relative to unlabelled TNFα = 1.00
Method: as §1

[9] = target: T3, soluble cynomolgus TNFR2; assay: as above; remark: listed apart in the source
Method: as §1, §2

B1: chimeric SBT-004 (antibody, V domains shown)
VH: EVQLQQSGPEVGRPGSSVKISCKASGYTFTDYIMHWVKQSPGQGLEWIGWVDPEYGSTDYAEKFKKKATLTADTSSNTAYIQLSSLTSEDTATYFCARDDGSYSPFDYWGQGVMVTVSS
VL: DIQMTQSPPSLSASLGDKVTITCQASQNINKYIAWYQQKPGKAPRLLIRYTSTLESGTPSRFSGSGSGRDYSFSISNVESEDIASYYCLQYVNLLTFGAGTKLEIK
notes: VH fused to a human IgG1 Fc domain; also called chSBT-004
% CD4^+ ab^+ Donor 1 [1]: 38.4% | % CD4^+ ab^+ Donor 2 [1]: 26.4% | % CD8^+ ab^+ Donor 1 [1]: 18.8% | % CD8^+ ab^+ Donor 2 [1]: 16.1% | Average Relative IC50 [2]: 5.07 nM | Average Relative IC50 [3]: 3.64 | IC50 [4]: 16.7 nM | IC50 [5]: 19.6 nM | IC50 [6]: 16.7 nM | Relative IC50 [7]: 3.54 nM | Relative IC50 [8]: 4.45 nM | Relative IC50 [9]: 3.22 nM

B2: chimeric SBT-002 (antibody, V domains shown)
VH: QVTLKESGPGILQPSQTLSLTCSFSGFSLSTSGMGVGWIRQPSGKGLEWLAHIWWDDDKFYNPSLKSQLTISKDTSRNQVFLKLTSVVTADTATYYCARLTGTRYFDYWGQGTTLTVSS
VL: DVQMTQSPSSLSASLGGKVTITCKASQDINKFIAWYQHKPGKGPRLLIHYTSTLQPGIPSKFSGSGSGRDYSFSISNLEPEDIATYYCLQYGNLWTFGGGTKLEIT
notes: also called chSBT-002
% CD4^+ ab^+ Donor 1 [1]: 47.6% | % CD4^+ ab^+ Donor 2 [1]: 38.3% | % CD8^+ ab^+ Donor 1 [1]: 24.3% | % CD8^+ ab^+ Donor 2 [1]: 18.9% | Average Relative IC50 [2]: 2.91 nM | Average Relative IC50 [3]: 3.38 | IC50 [4]: 7.53 nM | IC50 [5]: 16.5 nM | IC50 [6]: 15.6 nM | Relative IC50 [7]: 2.98 nM | Relative IC50 [8]: 4.16 nM | Relative IC50 [9]: 2.87 nM
